In patent US20180000925:

Molecular target: recombinant HCV E2 protein (eEnzyme)

B1: CD45 (Enzo Life Sciences) (protein)
chain: SCNLDEQQELVERDDEKQLMNVEPIHADILLETYKRKIADEGRLFLAEFQSIPRVFSKFPIKEARKPFNQNKNRYVDILPYDYNRVELSEINGDAGSNYINASYIDGFKEPRKYIAAQGPRDETVDDFWRMIWEQKATVIVMVTRCEEGNRNKCAEYWPSMEEGTRAFGDVVVKINQHKRCPDYIIQKLNIVNKKEKATGREVTHIQFTSWPDHGVPEDPHLLLKLRRRVNAFSNFFSGPIVVHCSAGVGRTGTYIGIDAMLEGLEAENKVDVYGYVVKLRRQRCLMVQVEAQYILIHQALVEYNQFGETEVNLSELHPYLHNMKKRDPPSEPSPLEAEFQRLPSYRSWRTQHIGNQEENKSKNRNSNVIPYDYNRVPLKHELEMSKESEHDSDESSDDDSDSEEPSKYINASFIMSYWKPEVMIAAQGPLKETIGDFWQMIFQRKVKVIVMLTELKHGDQEICAQYWGEGKQTYGDIEVDLKDTDKSSTYTLRVFELRHSKRKDSRTVYQYQYTNWSVEQLPAEPKELISMIQVVKQKLPQKNSSEGNKHHKSTPLLIHCRDGSQQTGIFCALLNLLESAETEEVVDIFQVVKALRKARPGMVSTFEQYQFLYDVIASTYPAQNGQVKKNNHQEDKIEFDNEVDKVKQDANCVNPLGAPEKLPEAKEQAEGSEPTSGTEGPEHSVNGPASPALNQGS
**Q.** For B1, which “dephosphorylation in an in vitro reaction (phosphotyrosine immunoblot)” value is on record?
**A.** The value was “dephosphorylated by CD45”.
